Data on three molecules can be found in patent publication KR20230175116A (dated 2023).

The chains are these.
T1: DR3 on cells (DR3 stable cell line; DR3 on human PBMC T cells) (human, UniProt Q93038 25-417)
T1 construct: whole, on cells; Also used for the DR3 of hPBMC T cells in the NF-kB assays; also called 세포 표면에서 발현된 DR3; DR3 natural form
T1 sequence (looked up): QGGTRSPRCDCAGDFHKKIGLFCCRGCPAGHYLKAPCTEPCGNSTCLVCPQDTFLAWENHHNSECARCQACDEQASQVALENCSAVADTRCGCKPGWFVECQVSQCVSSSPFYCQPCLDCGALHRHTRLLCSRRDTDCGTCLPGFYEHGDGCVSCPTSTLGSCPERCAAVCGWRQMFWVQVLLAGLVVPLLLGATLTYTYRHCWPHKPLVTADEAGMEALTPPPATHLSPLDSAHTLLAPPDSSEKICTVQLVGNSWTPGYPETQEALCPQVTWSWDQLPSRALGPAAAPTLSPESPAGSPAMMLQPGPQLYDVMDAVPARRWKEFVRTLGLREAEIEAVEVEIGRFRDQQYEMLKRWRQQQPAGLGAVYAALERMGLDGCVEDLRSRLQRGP

B1: 6-2 mAb (antibody, V domains shown)
VH: QVQLVQSGGGLVQPGGSLRLSCAASGFTFSSYSMNWVRQAPGKGLEWVSYISSSSSTIYYADSVKGRFTISRDNAKNSLYLQMNSLRAEDTAVYYCARWDGYCSGGSCYSGMDYWGQGTLVTVS
VL: not shown
notes: Human monoclonal IgG; also called clone 6-2; clone 6-2 IgG1
B2: 6-15 mAb (antibody, V domains shown)
VH: QVQLVQSGGGLVQPGGSLRLSCAASGFTFSSYSMNWVRQAPGKGLEWVSYISSSSSTIYYADSVKGRFTISRDNAKNSLYLQMNSLRAEDTAVYYCARWDGYCSGGSCYSGMDYWGQGTLVTVS
VL: DIEMTQSPSSLSASVGDKVTITCQASQDISNYLNWYQQKPGKAPKLLIYDASNLETGVPSRFSGSGSGTDSTFTISSLQPEDIATYYCQQYDNLPLTFGGGTKVEIK
notes: Human monoclonal IgG (detected with anti-human IgG Fc); also called clone 6-15
B3: 항-DR3 4-4 항체 (4-4 mAb) (antibody, V domains shown)
VH: EVQLVESGGGLVKPGGSLRLSCAASGFTFSDYYMSWIRQAPGKGLEWVSYISSSSSYTNYADSVKGRFTISRDNAKNSLYLQMNSLRAEDTAVYYCASNVDTAMVGAFDIWGQGTLVTVS
VL: DIEMTQSPSSVSASVGDTVTITCRASQHISNWLAWYQQKPGQAPKFLIYTASNLQSGVPSRFSGSGYGTDFTLTISGLQPEDFATYYCQQADSFPLTFGGGTKVDIK
notes: also called clone 4-4; clone 4-4 IgG1

The target in this experiment is T1, DR3 on cells (DR3 stable cell line; DR3 …). Nature of the experiment: FACS, DR3 stable cell line, 2 ug/ml mAb, anti-human IgG PE.
On to B1, for which the binding result was “binds”.
Next, B2: “binds”.
For the molecule B3, the binding result was “binds”.
